This is an account of results in PMC8906792 (eNeuro, 2022).

Numbering of substitutions follows the chain as printed. In names and notes the source's numbering stands.

The data set deals with the molecule itself. In words: native gel or EMSA; NativePAGE 3-12% Bis-Tris gel, 7.5 ug of recombinant protein per lane; oligomer profile from <480 to 1236 kDa, median size read against markers. (In general: In EMSA bound probe runs differently from free probe, usually more slowly.)

B1: recombinant human αA-crystallin T148D (phosphomimetic) (natural protein, UniProt P02489 1-173, looked up)
chain: MDVTIQHPWFKRTLGPFYPSRLFDQFFGEGLFEYDLLPFLSSTISPYYRQSLFRTVLDSGISEVRSDRDKFVIFLDVKHFSPEDLTVKVQDDFVEIHGKHNERQDDHGYISREFHRRYRLPSNVDQSALSCSLSADGMLTFCGPKIQDGLDATHAERAIPVSREEKPTSAPSS
In the case of B1, the binding result is recorded as “binds”.

B2: recombinant human αA-crystallin T148A (nonphosphorylatable) (natural protein, UniProt P02489 1-173, looked up)
chain: B1 chain with D148A
Turning to B2, the binding result was “binds”.
